Experimental data from the DeepSol protein solubility set.

Experiment: soluble on expression in E. coli; label from the status in PepcDB or PDB records

Sequence	soluble on expression in E. coli
MKVIEVTHPIQSNQFITENVAMAFGFFDGMHRGHDKVFQVLDEKAKEHQLKKAVMTFDPHPSVVLNPERKRTTYLTPLSDKLEMIAEHGIDYCIVINFSSRFANVTSDDFIKNYIINNHVKEVIAGFDFTFGKFGKGNMTVLQESKAFNTTIVGKQEMDSEKISTTAIRQALTDGHLQKANDELGYIYRIKGTVVQGEKRGRTIGFPTANVQPSDDYVLPKKGVYAVSMEIGPESKLHRGVANVGVKPTFHDPTRAELVIEVNIFDFNENIYGERVTVYWHHFLRPEVKFDGIDPLVKQMNEDKAQAKHLLSIDFDDDISYNI	not soluble
MAHHHHHHMMDDQSSTSGGPQEGRDADHRQNHGNVLFVGNLPFQTPWQHVKDHFRKAGKVRYTDLIADRMGRPKGSALVTMVTAEGAQRAIRMYNETDFEGRRLIVRLFDDGPRPPIVQRGMMPQYDRQTQQQQPQQQSQRFRGYTGASSGGSNYNNTTNFGRRADYMGRGGYTMEEDLNATSLNDMGDSVPKPRSQQVNEFGRKLFVSNLPFDCTSSALRETFQQVGNVERAEVILGRNGKSRGMGIVVMRTEKETRLAIEEFDGIEMANRAMSVRLDNKTTA	soluble
MEVDNVKPSSSVPQRNWEKENNVQNVDSIFEYNNKQQVEIRNAKPWDKDPHYFKQIKISAIALLKMTMHAKRGGNLEIMGLLQGRIDANSFIILDVFALPVEGTETRVNAQAQAYEYMTVYSEMCDTEGRKEKVVGWYHSHPGYGCWLSGIDVSTQTLNQKFQEPWVAIVIDPLRTMSAGKVDIGAFRTYPEGYRPPDDVPSEYQSIPLAKIEDFGVHCKRYYSLDVSFFKSQLDAHILTSLWNSYWISTLSSSPLFSNVEFLNNQIQDINQKLSAVDKKLQLNDRSVDGHEALMKVVTDAKAVGDELETGRISHLVKQLLFARQAGGGCGCSHASAGSPMDIAVATEPEKAGPSPSAPEPAVEMADA	not soluble
MDTIIYYSEMEGISLEHLKRSSGYDMRSNHFHNEYEIYFLTEGERLFFFNNRAYQVKKGSLILVDTNLIHMTHAPEDDTTGYTRIILYIDKFKMQQFDEKFPHLNLVPFFREHYGVYNLTQKQQEKFLHMYEVLKTEFSNRSRSYKALIEMEIIHYFIDFIRDNPELTPIKDETAIHKSSKYQ	not soluble
MGSDKIHHHHHHMIEQLIQQAQPYWQQYIEHEFVQQLAKGTLPKACFQHYLKQDYLYLFHYSRAFALGVFKAKNFAEMETPRKTLEILCQEIQLHLNYCREWGISEQEIFTTQESAACIAYTRYLLDCGMTGSLAELYAAVTPCALGYAQVARYITQHYPRLPNNPYQTWIDTYASEEFQQAAQETVDFLTALCKPLNPSQLAEIQQIFTTATRMEIAFWQMGLDLA	not soluble
MAHHHHHHMADVSADSDAQVELERLNDVIDKYTCQVEHIDNLLQELEEENNSDSVSRQIAEYQSALESHPENIPAEDALEVITRLENTLKIVQRRNHLLEKENGTQNRLLEERSNVLLNATKTFDHIVDVTGWHDKFLFDAEDLRSKVADIREMSNIEAVVQKELRVAQGIIKKKEAALRQLEELVEQGKEQEAVLNNVYNDIRVKERDCSEVEMQLVRLRKSVAKTDEALAVFDLHNQNASLAYMESDRDYLRDSVAEMKSTTRRQDNVIKAQLTRQQQLQTRLDVIMKSLREMKLDKKYERNIPKSALVPSASREEPEDVSKILPESECIPVPTYRLLHKNNEMLRVIVMRKNMLVLEKNAVIEALEAGLAKYGSALITTYKEQQDLRQNKDMELIELMDDLQQQHSNYLEKLEELRLQNAALKKKMYRSTRQHAPLKGTRPMR	not soluble
MVRIDAKGLHYKKLNDLIWEAVENGEEEIVLDNVCGQRYIGAGIRKKVKIEINGVPGNDLGVFMDGPEIIVNGNAQDGVGNTMNAGKIVVHGHAGDIIGYAMRGGHIYIKRNAGYRVGIHMKAYKENYPVVVIGGFARDFLGEYMAGGLLIVLGLEKDEDGNIAGNYVGTGMHGGEIFLRGTVEEHKLGKEVKIFQPTEEDINRIKPYVEEFCRLFDYDSEEILNEEFIILKPYTHRPYGRLYAY	not soluble
MHDFVGFMNKISQINRDLDKYDHTINQVDSLHKRLLTEVNEEQASHLRHSLDNFVAQATDLQFKLKNEIKSAQRDGIHDTNKQAQAENSRQRFLKLIQDYRIVDSNYKEENKEQAKRQYMIIQPEATEDEVEAAISDVGGQQIFSQALLNANRRGEAKTALAEVQARHQELLKLEKSMAELTQLFNDMEELVIEQQ	soluble
MGSDKIHHHHHHMKLGFITSILDSWTYEEMMDFASGQGFECVEVACWPQEKAERRYAGVSHIDAERVNQDDAYAEHIVEYAKKSGVEISALAYYPNVMVADKEKSATAVEHLKQVILASKKLGVGMVTTFIGRDQTKNIQENLELVKEIWPPIIKLAEECDVKIAIENCPMLFGKEQWPGGQNLMTTPPIWREVFRILDSDHLGINYDPSHFIWQMIDYIRPLYEFKDKIFHVHYKDIKIYKDKLESCGIMAYPLEYMSPKIPGLGDVDWGKYVSALTDIGYDGYTCIEIEDKAFEDFKEKVENSLIISKRYLEQYVI	not soluble
MGSDKIHHHHHHMTQHVIEMREITKKFGDFVANDHINLNVRKGEIHALLGENGAGKSTLMNMLAGLLEPTSGEIVINDKPVQIDSPSKSAKLGIGMVHQHFMLVEAFTVAENIILGNEVVKNGCLDLNQASKDIKVLSEKYGLAINPSAKVSDISVGAQQRVEILKTLYRGADILIFDEPTAVLTPAEIKELMTIMKNLVKEGKSIILITHKLDEIRAVADRVTVIRRGKSIETVDVAGATSQDLAEMMVGRSVSFTTSKKAAEPKDVVLSIKNLEVDENRGVPAVKGLSLDVRAGEIVGIAGIDGNGQSELIQAITGLRKVKSGSIMIKNNEVTHLSSRKITELSVGHVPEDRHRDGLILDLSLAENTALQTYYKQPLSQNGILNYTKINDYARQLMKEFDVRGANELVPARGFSGGNQQKAIIAREVDRDPDLLIVSQPTRGLDVGAIEYIHKRLIKERDKGKAVLVVSFELDEILNLSDRIAVIHDGKIQGIVSPENTNKQELGILMAGGSIHKEEGHV	not soluble
MKLMDVRVSGLNVWITDKHILKGISFKAQPGTVTAIMGPSGSGKSTLIRVINRLIDLIPGARVEGEVWINNMNVMKEDPYNIRRYTGMVFQEPNPFPHMTIYENVAIGPKLHGLAKNKKELDEIVEWALKMAHLWDEVKDRLSDYPHQLSGGQRQRLSLARALALKPRVLLLDEPTANIDPVSTVKIEQSIVEYAKEEMATVIIVTHTPQQAARISDQILFLYEGRVIEYGPTKELVLRPRHELTKKFLGGEV	soluble
MAHHHHHHMPPFFEARAEKLMLAAQEECRLLAAQLEKSRAARAASTCGPQGKIRAAPATAPVAATSPPSPRRTYSAATATVAVKGLSIGSSTSTSPDRAGSPSAAPPSASPARVVIPTAATHKEGTLLHLVRGSGLFGSGSRSFVPHYIAVSGSAGISWYASEAEYRQNPSRPLGHADFWIETFNSRGSRFKKAAVCWPLILPDDCPEAKDANKTYFAVDYYTPDEAREQVVLAASSPAERDEWVQLLTKYIDLYLAPRAESEELQHIPRGAEVPLHRSGVIEGEAPGGNIL	soluble
SKHSNKPYDSFQDELEDYIKVQKARGLEPKTCFRRMRGEYLESCGYREEFDSRPRYRMFDQRLPSGTNHSYPRSCSSSQTEDRVPQWLPAHDKIRLNSLSYCQFTRDGFSEKPVPLNLSQQEYNCGSYSVESVVHKRLCSEHSTIDPQVSHRQMHQKRKKHVEEGREKQEERPKHERKRSSEEMDLNKHRSIQRKKTKAETETVQDGTEKLKNRKEKKTRDVSSKKEDRKRRKEKKEQGEERTEEEMLWDQSILGF	soluble
GASIRWEWRAARFADYLLQTRLKSRNNGLRVVYSITINLVPNHLDKRAHKYLGMVRQASRKYGVDESLILAIMQTESSFNPYAVSHADAMGLMQVVQHSAGRDVFRSQGKSGLPSRSYLFDPANNIDTGTAYLAMLNNVYLAGIDNPTSRRYAVITAYNGGAGSVLRVFSSDKVQAANIINSMAPGDVYQTLTTRHPSAESRRYLYKVNTAQKSYRRK	not soluble
GMEGSLSRGVEIMKLRELVARSRSIRRFDEHVAVNDATLRDLVELVCYTPSAANRQLLRFLPVTGADMSDKVFPCLKWAGYLEDWPGPEPGERPAAALVMLCRNEDLPGAACDSGIAAQTIMLGAAEKELGGCIVAAIDRERLMASLGIPDAWTVLLVIALGKPAETVVIDQIKPGDDIRYWRDKHGIHHVPKRQVDELLVTAEQLRERG	soluble
MANDKIVIHGARAHNLKNIDVTIPRDKMVVVTGLSGSGKSSLAFDTLYAEGQRRYVESLSAYARQFLGQMDKPDVDSIDGLSPAISIDQKTTSKNPRSTVGTVTEINDYLRLLFARVGHPICPNDHIEITSQSVEQMVDKVLELPERTKIQILAPVVVKKKGQHKKVFEMIQREGYVRMRVDGETYDVSEAPELEKNKKHDIAIVIDRIVVKEGIRSRLFDSFEAALRLAEGYAIVDVIGQEEMLFSEHYACPYCGFTVGELEPRLFSFNAPFGACPDCDGLGVKLEVDKDLVIPDPTKTLREGAIVPWNPISSQYYPQMLEQAATSFGIDMDTPFEELPADQQEIILNGSGEKNFHFHYENDFGGVRDVEVPFEGILKNIKRRYHETNSDFTRDQMRLYMTELTCRSCQGYRLNPQALAVKINGTHIGEVSELAIKNAVQFFEGVSLSEQETTIARPILKEVEDRLTFLKNVGLDYLTLSRAAGTLSGGEAQRIRLATQIGSNLSGVLYILDEPSIGLHQRDNDRLIDSLKKMRDLGNTLIVVEHDEDTMMASDYLIDVGPGAGHLGGEIVAAGTPEEVAKNPHSLTGQYLSGKKVIPVPKERRKGNGKAIKVTGASENNLKNVSVEFPLGEFVAVTGVSGSGKSTLVNQILKKALAQKLNRNSNKPGKHKSITGYEAIEKIVDIDQSPIGRTPRSNPATYTSVFDDIRDLFAQTNEAKVRGYKKGRFSFNVKGGRCEACRGDGIIKIEMHFLPDVYVPCEVCHGKRYNSETLEVHYKGKNISDILDMTVEDAVEFFKHIPKIHRKLQTIVDVGLGYVTLGQPATTLSGGEAQRMKLASELHKNSNGKNFYILDEPTTGLHTDDIARLLLVLERLVEAGNTVLVIEHNLDVIKSADHVIDLGPEGGDGGGTIVATGTPEEVAKVKDSYTGYYLKRVLK	not soluble
MGSDKIHHHHHHMSVPRWVAERTGLPRTAHDAGTIGAAGCTVNRFAVALMPDSGGHPRKPIAGVDAPPPHLLLVARRMTRPGEHMALTTYTPVITVFAAGREWTLERAADLQTLWDNMVEADFGDDERLPYWTELWPSSLVLADWLHDNAGRIRGRTCLDMGCGLGLCSLVGQWLGARVTGMDYEPEALFHARRNAERNRVPQPLWTVMDWRAPAVRRHAADLVWGGDIMYERRFVTPVLDFLDHVLAPCGAAWVAEPGRTVYNHFRETLDARGWHARRVLSSETASLYEQPESVTVHLWEITR	not soluble
AQSSTDVIDQLFTALSGWFHGSEEKLGEFRGCFFINTSAEFSDDSGEIATYCRHHKQQVRELIQRYLKSDNTSLLDAICIMKEGAITTAYMTKEYDDVTKKCVEILHKL	not soluble
MTVEQNEFLSSVQLQILAEQAIKQYPNEYQGSVKLLCQSENATFLVTTAQAKYALRIHRPNYHHLQDIESELAWLDALNQSGIEVPLAIADQDGQRVITLKLAEGISRYAVLFNWVNGSMPTTDVDPTAFQQLGQITAALHQHSKSWKRPEQFNRIVWNHDTMVGAQGHWGNWKHAPHLDQADHAVVEEAIARISTELCQYGAGEDRYGLIHADLRLTNLLLQDQQIGVIDFDDCGMSWFMHDLAAAISFNEHLDAAPQWVEHWLTGYEKTGHVQNHDYVMIPTFIMQRRIQMMAWNGSHAHTEMALSLGDQWSNETVRLCKKYLNGEMPVGRSNA	not soluble
MSLAEQATKSVLFVCLGNICRSPIAEAVFRKLVTDQNISENWVIDSGAVSDWNVGRSPDPRAVSCLRNHGIHTAHKARQITKEDFATFDYILCMDESNLRDLNRKSNQVKTCKAKIELLGSYDPQKQLIIEDPYYGNDSDFETVYQQCVRCCRAFLEKAHEGHHHHHH	soluble
